System: K4 kissing-loop RNA reporter
Assay: apparent KD of K4 kissing-loop reporter; higher = weaker reporter binding
Settings: Eterna round: R107; input ligand: arginine 13.2 mM
Experimental: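 RNA-MaP round R107: designed RNA switches with theophylline, tryptophan, arginine or FMN aptamers are transcribed on-chip within common flanks. They are titrated with a labelled K4 kissing-loop RNA reporter in RNA-MaP buffer (100 mM Tris pH 7.5, 80 mM KCl, 4 mM MgCl2), without ligand or with the indicated ligand. Median apparent KD per design.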
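Also: bound reporter read as fluorescence of individual clusters on recovered sequencing chips by microscopy, with normalized cluster intensities fitted with a binding model.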

First: UGCAGUGAUGUUGCUAUUUUUCUUGAUUAACGAGGACCGGUACGGCCGCCACUCGAUUUCUCUCUAAUCCAGUAUGUUGUUUAGU [JR_ExcTryptoA_Sub001]
Second: UGAUAGGAGAGAAGGAGCGGGAGUGAUGUUCCCAAAGAUUGGUCUAGCAAAGCUGGACCCUCCCAGGUAGGUCGCUCUCCUAUCU [KL-XARG-B16]
The “apparent KD of K4 kissing-loop reporter” value of the first is 2.9-fold lower: 144 nM for the first, 419 nM for the second.

Compared with “CGAGUGAUGUUCGAAGAGUUGUUAAGCGAUACCAGCUAGGAAACUGGCCCUUGGCAGCGUAAUAAGUUAAUAAAUAAAUGAUCAC [whbob_Ex_Theo_A_th64]”, “GAUGAUCGCGCGGCCGCCACUGGUCAGUGAUGUUGACAUUAAGGCGCCGAGUAGUAACGGCGCCACAGGACCGGGCGCGAUGUAG [First Shot]” is 2.7-fold lower in “apparent KD of K4 kissing-loop reporter” value: 411 nM for the first, 155 nM for the second.

Going from “UGCUUUAUCAGAAGGAGCGCGUUGGUCAUAAUAAUAAUCAGUGAUGUUGAUAUAUGAGGAUUGCAGGUAGGUCGCUGAUAUAGCU [KL-XARG-B1]” to “GUGUGUGUCGGAGGAUAUGCGGUGGGUGUGGGCGGAUUAGUGAUGUUGGUUGUGGUGGUGGUGGGUGUAGAAGGUUGGUGUGUGU [RHig 3/7 C]”, the “apparent KD of K4 kissing-loop reporter” value rises from 210 nM to 350 nM (1.7-fold).

Same assay, conditions: Eterna round: R107; input ligand: none

“CCCAAGGGCGAACCGGUAUGAUCGACGGAUACCAGAGGCGAAAGCCUCCCUUGGCAGCCGGCUGUAGUGAUGUUACACUGGUUCU” and “AACUCUCAGACAUUUGAGUGAUGUUCAGGCCGAGGACCGGUACGGCCGCCACUCGGGUCUGAGAGAGGUUAUCAAAGAUAGCCAA [Omei KL Tryp A SS A v6]” are within 1.5-fold of each other in “apparent KD of K4 kissing-loop reporter” value: 168 nM for the first, 234 nM for the second.

Going from “AGAGUUAAUUAGUCUUUUUUAACAUUAAGUCAGGAUAUCGUAUAUUCGAGAAGGGACACAUGCUAGUGAUGUUAGCUAUUUCUCA [JR_ExcFMNA_Sub018]” to “UGGACCAGGAGUGAUGUUCCAAAAUGUGAUACCAGCCACGAAAGUGGCCCUUGGCAGCACUGCCAGGACGAAAACGUCCGGUCCU [#SwitchBubble 11 #StaticStem #K4Early]”, the “apparent KD of K4 kissing-loop reporter” value rises from 56.5 nM to 278 nM (4.9-fold).

Going from “GGUCGGAGUGAUGUUCCGAGCUUCAGUCAUCGAGGACCGGUACGGCCGCCACUCGUCUACUAUGACGUAUCACCCUCCACGUGUU [theeternabot_sameState_KL_Trp_A_33]” to “AAAAUAAACCAGUGAUGUUGGUGUCCAGAUACCAGCGAUAAUAAUCGCCCUUGGCAGCUGCGGACGUACAAAAUAAGUACGUCCU [MatMod 11 - Jieux - Same State - Theophylline A]”, the “apparent KD of K4 kissing-loop reporter” value rises from 146 nM to 513 nM (3.5-fold).

Compared with “UAAUAUACGAGUGAUGUUCGUUAUUUAUCAGAGGAUAUGCUUAAAUGCAGAAGGCUGUUUUUCUAAUUGAUAUUAAAUUUUUUUA [JR_Nu_ExcFMNA_Sub028]”, “AUGCGGUGGAGGCUACCGCUAUUCUGAGAAGGAGCGCAGAUGACUGCAGGUAGGUCGCUUAGAGCUUGCAGUGAUGUUGCAAGUU [Islatimaed]” is 2.6-fold higher in “apparent KD of K4 kissing-loop reporter” value: 74 nM for the first, 191 nM for the second.

Going from “GCUAUGGUAGGAAGGAGCGCUUAAUUACUAAUAAGAGUGAUGUUCGAUAGUAGGUAUUUAUAGCAGGUAGGUCGCCUACUAUAGC [KL-Arg B23]” to “CACUCGGUAUCAGAUACCAGACUAACGAUACCGAGUGUAUCGGGUAGUGAUGUUACCAUAGUCCCUUGGCAGCUGAUAUACCAUA [Theo B SS t9]”, the “apparent KD of K4 kissing-loop reporter” value rises from 176 nM to 265 nM (1.5-fold).

Compared with “UAAUCCUAGUGAUAAUAAUCAAGUGGUGGACGAGGACCGGUACGGCCGCCACUCGAAAAUGCAGUGAUGUUGUAAUCCGGAUAAU [Exclusion - Tryptophan A (Freestyle 4)]”, “ACGUCAUCAAAAGGAUAUGCAUCGAAGUGAUGUUUCGUCAUAUCAGUCUGAUUGCAGCAAUUAGGAGCAGAAGGUUUAGUCCGGU [theeternabot_exclusion_KL_FMN_B_11]” is 9.6-fold lower in “apparent KD of K4 kissing-loop reporter” value: 878 nM for the first, 91.9 nM for the second.

First: ACCGCAUUGGGAUGAUCCCAAUGCGCUGGUCGAGGACCGGUACGGCCGCCACUCGUCCAGUGAUGUUGGACUAGGGCAACUGAAG [Bileesma]
Second: UGAUUUAACUGAAGGAGCGGCAAUUGAUAAGUAAAUAUAGUGAUGUUAUAUAAGAUAGAGAGCCAGGUAGGUCGCAGAGGUAGGA [ExArgB.K]
The “apparent KD of K4 kissing-loop reporter” value of the first is 1.7-fold higher: 261 nM for the first, 152 nM for the second.

Compared with “AAGUGAUGUUGUAGUGAUGUUGUGAUGUUGCAGGAUAUAUAGUGAUGUAGAAGGGUAUGUACUUAUUUUUUUUUUGAGUUUUGUU [xgghzrmullin]”, “AUAUUAAGCGGAAGGAGCGGCUGAACCAGUGAUGUUGGUUAAUCCAAGUGAUGUUGGAAAAGCCAGGUAGGUCGCCGCUAUAUAU [Same State Arg B GF 1]” is 12-fold higher in “apparent KD of K4 kissing-loop reporter” value: 60.2 nM for the first, 695 nM for the second.

Going from “AUUAAUAUCACGGCCGCCACUGAAUAUUGUUUUUAUAUUUAGAAUAAUUGCCAGUGAUGUUGGAUCAGGACCGGGUGAUUUUAUA [JR_SSTryptoB_Sub008]” to “AAAAUAAUCCAGUGAUGUUGGUAUCCAGAUACCAGCCACGAAAGUGGCCCUUGGCAGCUGUAGGACGUACAAAUAAGUACGUCCA [#OpenEnded 7 #StaticStem #K4Early]”, the “apparent KD of K4 kissing-loop reporter” value falls from 727 nM to 345 nM (2.1-fold).

Going from “UGAUAGGACAGAAGGAGCGGCAGUGAUGUUGCCAAAAGGAUAAGGUGUCAAAAGACACCCUGCCAGGUAGGUCGCUGUCCUAUCU” to “CGAGUGAUGUUCGUUCGUUUAUUUGGGUGACAGGAUAUGCGGAAACGCAGAAGGGUCACCUUCGGGUUACCCGAAUUAACGUUAU [#09 K4 FMN A Exclusion]”, the “apparent KD of K4 kissing-loop reporter” value rises from 259 nM to 688 nM (2.7-fold).

“CUCGAGUGAUGUUCGAUUAUGUAUACAGAUACCAGUGAAUUUUAACACCCUUGGCAGCUGGUAGAAUCAUUUUAAUUUUAACUAG [JR_SSTheophyA_Sub021]” was tested, and the “apparent KD of K4 kissing-loop reporter” value was 221 nM.
